Assay results as given in paper PMC3350866 (Oncogene, 2006).

Molecular target: baculovirus-expressed human Dnmt1 (human, UniProt P26358 1-1616)
Assay: pull-down

Sequence of baculovirus-expressed human Dnmt1 (P26358 whole entry): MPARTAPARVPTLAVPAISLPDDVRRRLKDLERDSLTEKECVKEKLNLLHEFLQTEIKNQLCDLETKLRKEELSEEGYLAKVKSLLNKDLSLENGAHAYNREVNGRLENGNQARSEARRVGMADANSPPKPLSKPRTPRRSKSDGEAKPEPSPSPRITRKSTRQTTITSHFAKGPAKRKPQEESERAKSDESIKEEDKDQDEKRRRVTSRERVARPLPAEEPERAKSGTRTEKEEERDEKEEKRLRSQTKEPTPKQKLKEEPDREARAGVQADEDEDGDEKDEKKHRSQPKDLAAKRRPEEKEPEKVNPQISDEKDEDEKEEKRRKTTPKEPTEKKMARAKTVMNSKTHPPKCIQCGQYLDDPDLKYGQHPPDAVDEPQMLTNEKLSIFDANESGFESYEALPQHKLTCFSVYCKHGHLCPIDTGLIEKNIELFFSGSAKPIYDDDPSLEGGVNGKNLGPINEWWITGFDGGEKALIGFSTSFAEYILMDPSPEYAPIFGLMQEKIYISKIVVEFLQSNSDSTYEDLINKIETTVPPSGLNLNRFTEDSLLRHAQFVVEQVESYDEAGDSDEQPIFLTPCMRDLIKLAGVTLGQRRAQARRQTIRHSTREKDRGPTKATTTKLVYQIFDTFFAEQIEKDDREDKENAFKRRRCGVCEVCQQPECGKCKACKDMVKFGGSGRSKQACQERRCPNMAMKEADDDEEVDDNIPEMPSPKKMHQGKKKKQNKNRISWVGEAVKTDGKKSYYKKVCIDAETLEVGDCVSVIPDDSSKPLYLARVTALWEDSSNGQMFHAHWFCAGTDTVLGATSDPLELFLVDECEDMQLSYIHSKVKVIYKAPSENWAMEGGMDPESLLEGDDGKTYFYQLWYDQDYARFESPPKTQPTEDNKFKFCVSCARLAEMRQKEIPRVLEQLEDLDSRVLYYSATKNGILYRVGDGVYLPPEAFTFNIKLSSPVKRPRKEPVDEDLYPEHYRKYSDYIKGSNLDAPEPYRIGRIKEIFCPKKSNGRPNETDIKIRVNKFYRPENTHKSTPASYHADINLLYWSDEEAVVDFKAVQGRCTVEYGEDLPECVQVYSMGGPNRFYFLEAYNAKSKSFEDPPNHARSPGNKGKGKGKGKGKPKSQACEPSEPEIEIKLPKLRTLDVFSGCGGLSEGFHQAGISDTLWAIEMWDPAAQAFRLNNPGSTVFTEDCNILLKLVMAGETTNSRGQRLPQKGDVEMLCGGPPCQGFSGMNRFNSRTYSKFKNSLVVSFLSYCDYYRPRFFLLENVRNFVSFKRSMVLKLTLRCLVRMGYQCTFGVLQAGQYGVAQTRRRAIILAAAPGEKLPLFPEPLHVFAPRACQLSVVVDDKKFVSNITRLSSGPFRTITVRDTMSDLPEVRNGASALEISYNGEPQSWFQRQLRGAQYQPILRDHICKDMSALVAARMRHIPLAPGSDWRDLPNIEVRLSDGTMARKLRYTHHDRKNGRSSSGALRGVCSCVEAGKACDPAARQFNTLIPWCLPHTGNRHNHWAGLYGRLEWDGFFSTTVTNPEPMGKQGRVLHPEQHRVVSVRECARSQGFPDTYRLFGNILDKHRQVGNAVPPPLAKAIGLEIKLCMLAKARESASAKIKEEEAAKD

B1: GST-E7 (HPV-16 E7) (natural protein, UniProt P03129 1-98, looked up)
chain: MHGDTPTLHEYMLDLQPETTDLYCYEQLNDSSEEEDEIDGPAGQAEPDRAHYNIVTFCCKCDSTLRLCVQSTHVDIRTLEDLLMGTLGIVCPICSQKP
binding result: binds
